Reference: the supplement of paper PMC12667976

B1: library; numbered along this chain (parent)
chain: MATDAALRRLLRLHRTEIAVAVDSAFPLLHALADHDVVPEDKFQETLHLKEKEGCPQAFHALLSWLLTQDSTAILDFWRVLFKDYNLERYGRLQPILDSFPKDVDLSQPRKGRKPPAVPKALVPPPRLPTKRKASEEARAAAPAALTPRGTASPGSQLKAKPPKKPESSAEQQRLPLGNGIQTMSASVQRAVAMSSGDVPGARGAVEGILIQQVFESGGSKKCIQVGGEFYTPSKFEDSGSGKNKARSSSGPKPLVRAKGAQGAAPGGGEARLGQQGSVPAPLALPSDPQLHQKNEDECAVCRDGGELICCDGCPRAFHLACLSPPLREIPSGTWRCSSCLQATVQEVQPRAEEPRPQEPPVETPLPPGLRSAGEEVRGPPGEPLAGMDTTLVYKHLPAPPSAAPLPGLDSSALHPLLCVGPEGQQNLAPGARCGVCGDGTDVLRCTHCAAAFHWRCHFPAGTSRPGTGLRCRSCSGDVTPAPVEGVLAPSPARLAPGPAKDDTASHEPALHRDDLESLLSEHTFDGILQWAIQSMARPAAPFPS

Variants of: B1
Experiment: AIRE transcriptional activation functional score (insulin promoter-GFP; nonsense median 0, synonymous median 1) (normalised score); higher = higher AIRE activity (more reporter activation)
Settings: with insulin promoter-GFP reporter in HEK293
Procedure: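 Deep mutational scan of full-length human AIRE (codon-optimized cDNA, DT-POPCode NNN libraries over three regions) integrated at a Bxb1 landing pad in HEK293 cells carrying an insulin core promoter-GFP reporter at a Flp-In site. Cells were sorted for the top 10% GFP about 14 days after transfection. Variant frequency log-ratios (select vs non-select, TileSeq) were rescaled so that the nonsense median is 0 and the synonymous median is 1, then averaged over biological replicates.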

AIRE transcriptional activation functional score, by site and new letter:
Q225: A 0.99 | E 1.13 | I 0.248 | W 0.582 | L -0.23
I224: C 0.709 | F 0.959 | R 0.498 | D 0.864 | G 0.296 | E 1 | A 0.495 | P 0.419 | M 1.07 | H 0.512 | S 0.599 | K 0.822 | Y 0.84 | W 1.11 | V 0.58 | T 0.559 | L 0.689 | N 0.402 | Q 0.197
E229: T -0.101 | F 0.704 | S 0.662 | K 0.571 | P 0.679 | M 0.122 | I 0.102 | N 0.433 | H 0.361 | Q 1.13 | L 0.0432 | R 0.148 | D 0.886 | W -0.162 | C 0.0314 | V 0.158 | G 1.15 | A -0.0287 | Y -0.363
K221: A -0.576 | W 0.337 | R 0.95 | F -0.0481 | I -0.82 | P 0.766 | C 0.921 | S 0.464 | E 1.1 | Q 0.621 | H 0.705 | Y 0.0318 | N 0.995 | G 0.945 | M 1.02 | V 0.663 | L 0.328 | D 0.706
F215: R 0.351 | L 0.751 | D 0.909 | V 0.289 | C 0.382 | E 0.601 | P 0.715 | H 0.814 | M 0.136 | W 0.878 | I 0.64 | Y 0.54 | A 0.568 | S 0.474 | T -0.146 | K -0.187 | G 0.391
K222: C -0.312 | A 0.955 | Y -1.15 | N 0.679 | S 0.847 | R 1.05 | L 0.0335 | T 0.149 | F -0.315 | D 0.771 | M -0.00949 | G 0.393 | Q 1.11 | V 0.137 | E 0.916 | W -0.0951 | P 0.845 | H 0.644 | I 0.0162
G219: L 1.14 | W 0.981 | R 0.858 | E 0.654 | Q 0.0466 | V 1.14 | Y 1.14 | H 0.761 | T 1.01 | D 0.836 | F 0.625 | P 0.556 | C 1.5 | N 0.637 | A 1.13 | M 0.958 | I 1.35 | S 0.761
E216: K 1.2 | R -0.537 | G 1.09 | N 1.75 | L 1.42 | C 0.558 | Q 0.964 | W 0.395 | D 0.741 | A 0.655 | S 1.33 | H 0.489 | I -1.75 | V 0.252
S217: T 0.908 | Q 0.502 | Y 0.669 | P 0.572 | D 1.57 | A 0.4 | M 0.709 | G 1.1 | W 0.119 | V 0.98 | H 1.07 | N 0.895 | L 0.613 | R 0.942 | K 0.417 | E 0.8 | F 0.411 | I 0.549 | C 1.16
V226: I 0.848 | D 0.724 | K 0.148 | M 0.67 | R 0.531 | Q 0.554 | N -0.139 | C 0.347 | A 0.677 | T 0.799 | S 0.403 | L 1.08 | W 1.21 | E 0.0129 | P 1.09 | F 0.889 | G 0.814 | Y 0.994 | H 0.579
